According to US20230287457:

Test system: Nla type I-C Cascade + Cas3 expressed in E. coli (Neisseria lactamica)
Assay: cell_activity
Conditions: PAM 5'-TTC; E. coli plasmid interference

With “native CRISPR spacer 1 crRNA ; spacer 1 target with 5'-TTC PAM” the activity (fold reduction in colony count) was 1000.
